± gives the uncertainty stated by the source.
Experiment: self-splicing fitness, log relative to wild type (ln ratio); higher = more splicing; Tetrahymena group I intron in knt gene, E. coli kanamycin selection, DiMSum; sequences stand for … in CUCUCU…GGAGGGAAAAGUUAUCAGGCAUGCACCUGGUAGCUAGUCUUUAAACCAAUAGAUUGCAUCGGUUUAAAAGGCAAGACCGUCAAAUUGCGGGAAAGGGGUCAACAGCCGUUCAGUACCAAGUCUCAGGGGAAACUUUGAGAUGGCCUUGCAAAGGGUAUGGUAAUAAGCUGACGGACAUGGUCCUAACCACGCAGCCAAGUCCUAAGUCAACAGAUCUUCUGUUGAUAUGGAUGCAGUUCACAGACUAAAUGUCGGUCGGGGAAGAUGUAUUCUUCUCAUAAGAUAUAGUCGGACCUCUCCUUAAUGGGAGCUAGCGGAUGAAGUGAUGCAACACUGGAGCCGCUGGGAACUAAUUUGUAUGCGAAAGUAUAUUGAUUAGUUUUGGAGUACUCGUGGUCG
Procedure, shortened: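 The eight P1ex-region nucleotides of an intron in the knt kanamycin-resistance gene on pET-22b(+) were all randomised and the library put into E. coli BL21(DE3). Six replicate transformations were grown overnight at 37°C or 30°C on LB agar with or without 25 μg/mL kanamycin, together with 100 μg/mL carbenicillin, 50 μM IPTG and 0.2% rhamnose. Colonies were pooled and amplicon-sequenced on an Illumina HiSeq 2500. Fitness from DiMSum is the error-weighted combination of wild-type-normalised replicate fold changes, kanamycin over none.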

| Sequence | self-splicing fitness (ln) (30 °C) | self-splicing fitness (ln) (37 °C) |
| --- | --- | --- |
| UACAAGCAAUAUUACGAGCU | -3.19 ± 0.12 | -1.58 ± 0.11 |
| UACAAGCAAUAUUACGAUCG | 0.00344 ± 0.082 | 0.983 ± 0.11 |
| UACAAGCAAUAUUACGCAAC | – | -2.36 ± 0.3 |
| UACAAGCAAUAUUACGCAGU | -3.96 ± 0.27 | -3.27 ± 0.21 |
| UACAAGCAAUAUUACGCCAG | -1.5 ± 0.12 | -1.81 ± 0.15 |
| UACAAGCAAUAUUACGCCGA | -1.29 ± 0.1 | -0.999 ± 0.11 |
| UACAAGCAAUAUUACGCUAA | -1.95 ± 0.11 | -1.35 ± 0.11 |
| UACAAGCAAUAUUACGCUUG | -3.1 ± 0.23 | -2.79 ± 0.41 |
| UACAAGCAAUAUUACGGAAU | -3.62 ± 0.24 | -2.44 ± 0.25 |
| UACAAGCAAUAUUACGGCAA | -0.904 ± 0.072 | -0.0888 ± 0.088 |
| UACAAGCAAUAUUACGGCAC | -1.64 ± 0.14 | -0.345 ± 0.2 |
| UACAAGCAAUAUUACGGGAC | -2.61 ± 0.16 | -2.58 ± 0.17 |
| UACAAGCAAUAUUACGGGCC | -3.08 ± 0.23 | -2.55 ± 0.22 |
| UACAAGCAAUAUUACGUGAU | -3.16 ± 0.14 | -1.34 ± 0.14 |
| UACAAGCAAUAUUACGUUAG | -3.02 ± 0.11 | -2.11 ± 0.097 |
| UACAAGCAAUAUUACGUUGA | -2.72 ± 0.17 | -2.06 ± 0.15 |
| UACAAGCAAUAUUACGUUGU | -3.58 ± 0.12 | -2.99 ± 0.14 |
| UACCAGCAAUAUUACGAACC | -3.08 ± 0.2 | -1.05 ± 0.23 |
| UACCAGCAAUAUUACGAAGC | -3.64 ± 0.25 | -2.17 ± 0.18 |
| UACCAGCAAUAUUACGAGCG | -0.124 ± 0.06 | 0.206 ± 0.075 |
| UACCAGCAAUAUUACGAGGC | -4.87 ± 0.26 | -2.23 ± 0.15 |
| UACCAGCAAUAUUACGAUUU | -1.25 ± 0.076 | -0.288 ± 0.075 |
| UACCAGCAAUAUUACGCACG | 0.061 ± 0.066 | -0.903 ± 0.066 |
| UACCAGCAAUAUUACGCCAU | -3.27 ± 0.22 | -2.85 ± 0.16 |
| UACCAGCAAUAUUACGCCGG | -3.31 ± 0.22 | -3.14 ± 0.37 |
| UACCAGCAAUAUUACGCUAU | -2.45 ± 0.11 | -0.409 ± 0.089 |

| Sequence | self-splicing fitness (ln) (30 °C) | self-splicing fitness (ln) (37 °C) |
| --- | --- | --- |
| UACCAGCAAUAUUACGGACA | -0.227 ± 0.061 | 0.423 ± 0.076 |
| UACCAGCAAUAUUACGGACG | -0.177 ± 0.055 | 0.479 ± 0.088 |
| UACCAGCAAUAUUACGGCAU | -1.37 ± 0.089 | -0.029 ± 0.11 |
| UACCAGCAAUAUUACGGCCU | -0.232 ± 0.078 | 0.212 ± 0.094 |
| UACCAGCAAUAUUACGGCGC | -1.32 ± 0.073 | -0.174 ± 0.097 |
| UACCAGCAAUAUUACGGCUC | -0.179 ± 0.074 | -0.0529 ± 0.096 |
| UACCAGCAAUAUUACGGCUU | -0.562 ± 0.061 | 0.59 ± 0.097 |
| UACCAGCAAUAUUACGGGCA | -0.875 ± 0.054 | 0.469 ± 0.087 |
| UACCAGCAAUAUUACGGUGU | -3.64 ± 0.14 | -2.36 ± 0.13 |
| UACCAGCAAUAUUACGGUUG | -1.64 ± 0.067 | -0.791 ± 0.084 |
| UACCAGCAAUAUUACGUACC | -2.33 ± 0.11 | -2.23 ± 0.17 |
| UACCAGCAAUAUUACGUAUA | -0.615 ± 0.058 | -0.199 ± 0.072 |
| UACCAGCAAUAUUACGUCAC | -4.46 ± 0.42 | -2.32 ± 0.35 |
| UACCAGCAAUAUUACGUGCA | -0.43 ± 0.065 | 0.246 ± 0.09 |
| UACCAGCAAUAUUACGUUGC | -4.31 ± 0.32 | -2.6 ± 0.25 |
| UACGAGCAAUAUUACGACCG | -1.8 ± 0.45 | – |
| UACGAGCAAUAUUACGAUAG | -3.66 ± 0.47 | -2.31 ± 0.42 |
| UACGAGCAAUAUUACGCAAA | -2.36 ± 0.28 | -1.67 ± 0.47 |
| UACGAGCAAUAUUACGCGAG | -2.49 ± 0.15 | -0.597 ± 0.14 |
| UACGAGCAAUAUUACGCGGG | -2.83 ± 0.22 | -2.41 ± 0.45 |
| UACGAGCAAUAUUACGCUGA | -3 ± 0.26 | -2.02 ± 0.24 |
| UACGAGCAAUAUUACGCUUG | -2.75 ± 0.32 | – |
| UACGAGCAAUAUUACGGACC | -3.28 ± 0.24 | -3.19 ± 0.43 |
| UACGAGCAAUAUUACGGGUA | -1.64 ± 0.14 | -1.43 ± 0.14 |
| UACGAGCAAUAUUACGGUCA | -1.39 ± 0.11 | -0.173 ± 0.11 |
| UACGAGCAAUAUUACGGUGG | -3.62 ± 0.14 | -2.13 ± 0.11 |

| Sequence | self-splicing fitness (ln) (30 °C) | self-splicing fitness (ln) (37 °C) |
| --- | --- | --- |
| UACGAGCAAUAUUACGGUUG | -2.72 ± 0.13 | -2.11 ± 0.16 |
| UACGAGCAAUAUUACGUACC | – | -1.17 ± 0.36 |
| UACGAGCAAUAUUACGUCCU | -2.87 ± 0.22 | -1.38 ± 0.19 |
| UACGAGCAAUAUUACGUGAG | -3.28 ± 0.16 | -3.58 ± 0.24 |
| UACGAGCAAUAUUACGUGCG | -3.07 ± 0.15 | -1.97 ± 0.18 |
| UACGAGCAAUAUUACGUGUA | -3.39 ± 0.2 | -2.21 ± 0.16 |
| UACGAGCAAUAUUACGUUCG | -3.48 ± 0.25 | -2.76 ± 0.25 |
| UACGAGCAAUAUUACGUUUC | -2.65 ± 0.32 | -1.69 ± 0.24 |
| UACUAGCAAUAUUACGAAAA | -2.6 ± 0.35 | -2.26 ± 0.42 |
| UACUAGCAAUAUUACGAAGU | -3.85 ± 0.42 | -2.32 ± 0.41 |
| UACUAGCAAUAUUACGAGCA | -0.343 ± 0.12 | 0.447 ± 0.15 |
| UACUAGCAAUAUUACGCAUA | -1.99 ± 0.14 | -0.0544 ± 0.09 |
| UACUAGCAAUAUUACGCGAU | -2.84 ± 0.18 | -2.5 ± 0.18 |
| UACUAGCAAUAUUACGCGUC | -2.73 ± 0.14 | -1.81 ± 0.14 |
| UACUAGCAAUAUUACGCGUG | -1.21 ± 0.079 | -0.559 ± 0.089 |
| UACUAGCAAUAUUACGCUGG | -4.47 ± 0.39 | -1.78 ± 0.24 |
| UACUAGCAAUAUUACGCUUG | -1.44 ± 0.1 | -1.64 ± 0.14 |
| UACUAGCAAUAUUACGCUUU | -2.09 ± 0.11 | -2.16 ± 0.17 |
| UACUAGCAAUAUUACGGACU | -0.895 ± 0.12 | -0.214 ± 0.17 |
| UACUAGCAAUAUUACGGCUC | -1.67 ± 0.19 | -0.765 ± 0.18 |
| UACUAGCAAUAUUACGGUGA | -1.54 ± 0.11 | -0.0276 ± 0.12 |
| UACUAGCAAUAUUACGUAAA | -1.66 ± 0.12 | -0.614 ± 0.14 |
| UACUAGCAAUAUUACGUCAC | -3.47 ± 0.26 | – |
| UACUAGCAAUAUUACGUCCU | -1 ± 0.13 | -1.26 ± 0.15 |
| UACUAGCAAUAUUACGUCUU | -2.11 ± 0.13 | -1.27 ± 0.14 |

Source: the supplement of paper PMC7877785
